We go through seven molecules from US20210347873A1 (SHANGHAI PHARMAEXPLORER, published 2021).

B1: L1D12 (antibody, human IgG1, V domains shown)
VH: QVQLVQSGGGLVQPGGSLRLSCAASGFTVSSNYMSWVRQAPGKGLEWVSVIYSGGSTYYADSVKGRFTISRDNSKNTLYLQMNSLRAEDTAVYYCARGFHDILTGYGMDVWGQGTTVTVSS
VL: SSELTQDPAVSVALGQTVRITCQGDSLRNYYAGWYQQKPGQAPVLVIYGKNNRPSGIPDRFSGSSSGNTASLTITGTQAEDEADYYCSSRDNSGTHLVEFGGGTKLTVL
notes: also called LID12
B2: 111D10D6G3 (antibody, V domains shown)
VH: QVQLQQPGAELVKPGASVKMSCKASGYTFTRHWITWVKQRPGQGLEWIGDIFPGSGSINYNEKFKSEATLTVEKSSSTAYMQLSSLTSEDSAVYYCARGDVDVWGTGTTVTVSS
VL: DIQMTQSPSSLSASLGERVSLTCRASQEIRGYLSWLQQKPNGTIKRLIYAASTLDSGVPKRFSATRSGSDFSLTISSLESEDFADYYCLQYASYPFTFGSGTKLEIK
notes: Mouse hybridoma antibody purified on Protein G
B3: L9G7 (antibody, human IgG1, V domains shown)
VH: QIQLVQSGAEVKKPGASVKVSCKASGYTFTSYGISWVRQAPGQGLEWMGWISAYNGNTNYAQKLQGRVTMTTDTSTSTAYMELRSLRSDDTAVYYCARTYYDILTGYYYYGMDVWGQGTTVTVSS
VL: EIVLTQSPGTLSLSPGERATLSCRTSQSVDTYLAWYQQKPGQAPRLLIYDASNRATGIPARFSGSGSGTDFTLTISSLEPEDFAVYYCQQRSNWPLTFGGGTKVEIK
B4: 97A3C2H4 (antibody, V domains shown)
VH: EVKLVESGGGLVQPGGSLKLSCAASGFTFSTYTMSWVRQTPEKRLEWVAYISYGGGSTSYPDTVKGRFTISRDNAKNTLYLQMSSLKSEDTAIYYCTRHVTVVENSMDYWGQGTSVTVSS
VL: DILLTQSPDILSVSPGERVSFSCRASQSIGTSIHWYQQRTNGSPRLLIKYVSESFSGTPSRFSGSGSGTAFTLTINSVESEDIADYYCQQTHSWPWTFGGGTKLEIK
notes: as for B2
B5: 111D10D6G3 (antibody, V domains shown)
VH: B2 VH
VL: B2 VL
notes: Mouse hybridoma monoclonal antibody purified on Protein G
B6: 8E7D9C7F5 (antibody, V domains shown)
VH: QVQLQQSGVELARPGASVKLSCKASGYTFTSYGISWVKQRTGQALEWIGEIYPRSGNTYYNEKFKGKATLTADKSSSTAYMELRSLTSEDSAVYFCARSGPITTLVATDYGMDYWGQGTSVTVSS
VL: DIVLTQSPASLAVSLGQRATISCRASKSVSTSSYSYMHWYQQKPGQPPKLLIKFASNLESGVPARFSGSGSGTDFTLNIHPVEEEDAATYYCQHSREFPYTFGGGTKLEIK
notes: as for B5
B7: 97A3C2H4 (antibody, V domains shown)
VH: B4 VH
VL: B4 VL
notes: as for B5

T1 sequence (Q9Y275 134-285): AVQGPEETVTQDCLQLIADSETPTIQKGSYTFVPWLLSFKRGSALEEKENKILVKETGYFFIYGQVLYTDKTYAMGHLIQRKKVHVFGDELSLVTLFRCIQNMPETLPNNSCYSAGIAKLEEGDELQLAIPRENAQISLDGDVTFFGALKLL

The first assay addresses T1, biotinylated hBLyS-ECD (human, UniProt Q9Y275 134-285, biotinylated with Biotin-X-X-NHS (molar ratio 7:1), sites not stated).
T1 construct: The hBLyS-ECD of Embodiment 1 after biotinylation (Embodiment 2); also called biotinylated immunogen; BLyS protein; not shown: His tag of the pCPC vector
Nature of the assay: ELISA, biotinylated hBLyS-ECD captured on streptavidin; antibody 2.67 nM. The method, then:
(§1) Streptavidin was first diluted to a final concentration of 1.0 μg/mL with PBS, and then 50 μL of diluted streptavidin per well was aliquoted into 96-well ELISA plate, which was subsequently sealed with plastic film and incubated at 4° C. overnight. On the next day the plate was washed four times with the plate washing buffer [PBS buffer containing 0.05% (v/v) Tween20] and added with the blocking solution [PBS buffer containing 0.05% (v/v) Tween20 and 1% (w/w) BSA] and blocked for 2 hours at 37° C. The blocking solution was removed, the biotinylated hBLyS-ECD prepared in Embodiment 2 was diluted with PBS to a final concentration of 50 ng/mL and then aliquoted into the 96-well ELISA plate at 50 μL per well and incubated for 1 hour at 37° C. After rinsing the plate four times with the plate washing buffer [PBS buffer containing 0.05% (v/v) Tween20], 100 μl of the purified lead antibody harvested in Embodiment 1 and 2 was pipetted into each well. After incubation for 1 hour at 37° C., the plate was rinsed four times with the plate washing buffer [PBS buffer containing 0.05% (v/v) Tween20]. HRP-labeled (horseradish peroxidase) secondary antibody (purchased from Sigma) was added in and incubated at 37° C. for 1 hour. The plate was then rinsed four times with the plate washing buffer [PBS buffer containing 0.05% (v/v) Tween20]. 100 μL of TMB substrate was aliquoted into each well and after incubation for 5 minutes at room temperature, 100 μL of stop solution (1.0 N HCl) was aliquoted into each well. A₄₅₀ₙₘ values were read via an ELISA plate reader (SpectraMax M5e purchased from Molecular Devices) and the results were shown in FIGS. 5A-5B and Table 10.
For B1, the OD450 nm stood at 1.65.

Consider B2, for which the OD450 nm turned out to be 1.78.

On to B3, for which the OD450 nm came to 1.71.

With B4, the OD450 nm was determined as 2.75.

The next assay concerns the target T1, biotinylated hBLyS-ECD. Kind of assay: ELISA, biotinylated hBLyS-ECD captured on streptavidin; antibody 13.3 nM. The method, then: as §1
On to B1, for which the OD450 nm is 1.61.

For the molecule B2, the OD450 nm is 1.78.

With B3, the OD450 nm amounted to 1.6.

In the case of B4, the OD450 nm is 2.82.

The target in another assay is T1, biotinylated hBLyS-ECD. Nature of the assay: ELISA, biotinylated hBLyS-ECD captured on streptavidin; antibody 66.7 nM. The method, then:
as §1
For orientation: In an ELISA, binding on a coated surface is turned into a signal by an enzyme label.
On to B1, for which the OD450 nm was 1.75.

Turning to B2, the OD450 nm was determined as 1.94.

As for B3, the OD450 nm was 1.81.

Regarding B4, the OD450 nm turned out to be 2.98.

The target of another assay is T2, biotinylated hBLyS-ECD (human, UniProt Q9Y275 134-285, biotinylated with Biotin-X-X-NHS (molar ratio 7:1); sites not stated).
T2 construct: also called biotinylated immunogen; BLyS protein
T2 sequence (Q9Y275 134-285): as above
Kind of assay: blocking ELISA: biotinylated hBLyS-ECD on coated BAFF R, antibody 0.8 nM. The method, then:
(§2) BAFF R (purchased from R & D Systems) was aliquoted into 96-well ELISA plate at 50 ng per well, and the plate was sealed with plastic film and incubated overnight at 4° C. On the next day the plate was washed four times with the plate washing buffer [PBS buffer containing 0.05% (v/v) Tween20] and added with blocking solution [PBS buffer containing 0.05% (v/v) Tween20 and 1% (w/w) BSA], then blocked for 1 hour at room temperature. The blocking solution was removed and 50 μL per well of the lead antibodies prepared in Embodiment 1 and 2 were added followed by the addition of 50 μL per well of the biotinylated hBLyS-ECD prepared in Embodiment 2. After incubation for 1 hour at 37° C., the plate was washed four times with the plate washing buffer [PBS buffer containing 0.05% (v/v) Tween20]. 100 μL per well of HRP-labeled (horseradish peroxidase) avidin (purchased from Sigma) was added and incubated at 37° C. for 1 hour. The plate was then washed four times with the plate washing buffer [PBS buffer containing 0.05% (v/v) Tween20]. 100 μL of TMB substrate was aliquoted into each well and after incubation for 5 minutes at room temperature, then 100 μL of stop solution (1.0 N HCl) was aliquoted into each well. A₄₅₀ₙₘ values were read with an ELISA plate reader (SpectraMax 384plus, Molecular Device) and the results were shown in FIGS. 9A-9B and Table 15. It was shown in Table 15 that the binding of BLyS protein to its receptor BAFF R could be blocked by the BLyS antibody.
As to B5, the OD450 nm is 0.717 OD450 nm.

In the case of B6, the OD450 nm was 0.294 OD450 nm.

In the case of B7, the OD450 nm came out at 0.424 OD450 nm.

The target of the next assay is T2, biotinylated hBLyS-ECD. Nature of the assay: blocking ELISA: biotinylated hBLyS-ECD on coated BAFF R, antibody 0.032 nM. The method, then:
as §2
On to B5, for which the OD450 nm is 1.14 OD450 nm.

For B6, the OD450 nm worked out at 1.05 OD450 nm.

As to B7, the OD450 nm stood at 1.12 OD450 nm.

The target in another assay is T3, human BLyS (full length, arginine 132 mutated to histidine) on CHO-K1 cells (human, UniProt Q9Y275 1-285).
T3 construct: also called hBLyS; CHO-K1 hBLyS
T3 sequence (Q9Y275 other isoform, or with tags, fused parts or gaps limits assumed, change not shown): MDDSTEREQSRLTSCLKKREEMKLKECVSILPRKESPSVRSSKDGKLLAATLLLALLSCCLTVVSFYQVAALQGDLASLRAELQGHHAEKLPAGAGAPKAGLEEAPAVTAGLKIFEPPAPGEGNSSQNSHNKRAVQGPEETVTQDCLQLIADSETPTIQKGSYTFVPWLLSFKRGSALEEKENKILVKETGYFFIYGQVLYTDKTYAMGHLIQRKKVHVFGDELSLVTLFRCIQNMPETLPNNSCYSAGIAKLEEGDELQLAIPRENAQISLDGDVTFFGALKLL
Kind of assay: flow cytometry (FACS) on CHO-K1 hBLyS cells, Alexa 488 secondary antibody. (In general: A flow cytometer gives signals particle by particle.)
As a reminder, the EC50 (read off the curve) is the concentration giving half of the maximal effect. A higher EC50 (read off the curve) goes with lower potency in that assay. Turning to B1, the “EC50 (read off the curve)” value is ~0.2 nM.

As for B2, the “EC50 (read off the curve)” value is ~0.1 nM.

As to B3, the concentration giving a half-maximal response (EC50 (read off the curve)) was ~0.3 nM.

On to B4, for which the concentration giving a half-maximal response (EC50 (read off the curve)) is ~0.3 nM.

For the next assay, the target named is T1, biotinylated hBLyS-ECD. Nature of the assay: ELISA, biotinylated hBLyS-ECD captured on streptavidin; antibody 0.534 nM. On the procedure:
as §1
Consider B1, for which the OD450 nm turned out to be 1.5.

For the molecule B2, the OD450 nm worked out at 1.41.

For B3, the OD450 nm was found to be 1.35.

For the molecule B4, the OD450 nm worked out at 2.12.

For a further assay, the target named is T2, biotinylated hBLyS-ECD. Nature of the assay: blocking ELISA: biotinylated hBLyS-ECD on coated BAFF R, antibody 0.00128 nM. The method, then:
BLyS antibody blocking the binding of the BLyS protein to its receptor BAFF R was detected by the receptor-ligand binding assay of BLyS protein.
as §2
As to B5, the OD450 nm amounted to 1.27 OD450 nm.

Take B6: the OD450 nm was 1.62 OD450 nm.

As for B7, the OD450 nm turned out to be 1.34 OD450 nm.

In the next assay the target is T2, biotinylated hBLyS-ECD. Nature of the assay: blocking ELISA: biotinylated hBLyS-ECD on coated BAFF R, antibody 100 nM. On the procedure:
as §2
Regarding B5, the OD450 nm came out at 0.605 OD450 nm.

For B6, the OD450 nm came out at 0.11 OD450 nm.

B7: the OD450 nm is 0.107 OD450 nm.
